Consider six variants from IntAct's records for PubMed 28838205.

B1: WW domain-binding protein 4 (Homo sapiens), O75554 (parent)
chain: MADYWKSQPKKFCDYCKCWIADNRPSVEFHERGKNHKENVAKRISEIKQKSLDKAKEEEKASKEFAAMEAAALKAYQEDLKRLGLESEILEPSITPVTSTIPPTSTSNQQKEKKEKKKRKKDPSKGRWVEGITSEGYHYYYDLISGASQWEKPEGFQGDLKKTAVKTVWVEGLSEDGFTYYYNTETGESRWEKPDDFIPHTSDLPSSKVNENSLGTLDESKSSDSHSDSDGEQEAEEGGVSTETEKPKIKFKEKNKNSDGGSDPETQKEKSIQKQNSLGSNEEKSKTLKKSNPYGEWQEIKQEVESHEEVDLELPSTENEYVSTSEADGGGEPKVVFKEKTVTSLGVMADGVAPVFKKRRTENGKSRNLRQRGDDQ
B2: WW domain-binding protein 4 (Homo sapiens), O75554 (parent)
chain: B1 chain
partner: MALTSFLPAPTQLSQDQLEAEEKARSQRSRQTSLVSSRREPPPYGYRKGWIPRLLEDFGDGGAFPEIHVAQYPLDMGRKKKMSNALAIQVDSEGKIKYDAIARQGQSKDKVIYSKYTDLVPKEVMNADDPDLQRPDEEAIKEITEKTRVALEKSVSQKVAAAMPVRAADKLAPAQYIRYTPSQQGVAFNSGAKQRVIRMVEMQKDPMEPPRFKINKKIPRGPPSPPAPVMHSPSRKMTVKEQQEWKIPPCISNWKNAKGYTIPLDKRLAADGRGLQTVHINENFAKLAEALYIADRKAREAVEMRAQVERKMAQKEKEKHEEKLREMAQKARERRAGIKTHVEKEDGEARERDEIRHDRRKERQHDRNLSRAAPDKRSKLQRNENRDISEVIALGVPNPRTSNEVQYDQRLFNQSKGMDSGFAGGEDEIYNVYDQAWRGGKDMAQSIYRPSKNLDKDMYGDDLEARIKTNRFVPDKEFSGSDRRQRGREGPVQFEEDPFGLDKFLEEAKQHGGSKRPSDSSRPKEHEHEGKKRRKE
B3: WW domain-binding protein 4 (Homo sapiens), O75554 (parent)
chain: B1 chain
partner: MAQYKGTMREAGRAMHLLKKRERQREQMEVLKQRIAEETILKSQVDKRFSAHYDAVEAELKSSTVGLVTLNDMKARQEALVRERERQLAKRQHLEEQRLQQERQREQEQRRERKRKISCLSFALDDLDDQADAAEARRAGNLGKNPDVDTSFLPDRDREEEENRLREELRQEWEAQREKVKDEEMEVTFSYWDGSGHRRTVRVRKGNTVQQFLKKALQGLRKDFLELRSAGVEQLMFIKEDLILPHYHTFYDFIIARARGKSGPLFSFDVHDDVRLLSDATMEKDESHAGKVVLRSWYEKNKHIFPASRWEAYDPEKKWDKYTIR
B4: WW domain-binding protein 4 (Homo sapiens), O75554 (parent)
chain: B1 chain
partner: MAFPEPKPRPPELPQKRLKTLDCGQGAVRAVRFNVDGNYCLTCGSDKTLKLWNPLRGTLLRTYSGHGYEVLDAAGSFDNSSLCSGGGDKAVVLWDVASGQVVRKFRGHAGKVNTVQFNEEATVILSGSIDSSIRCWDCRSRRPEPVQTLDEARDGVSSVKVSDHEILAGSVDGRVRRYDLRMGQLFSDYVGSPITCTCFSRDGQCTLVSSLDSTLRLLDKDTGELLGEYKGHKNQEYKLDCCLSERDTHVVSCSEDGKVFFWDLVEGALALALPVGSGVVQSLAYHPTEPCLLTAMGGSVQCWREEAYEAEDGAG

The variants in the first test derive from B1. The conditions noted are these: with u520_human SNRNP200, O75643.
Sequence of u520_human SNRNP200, O75643 (O75643 whole entry): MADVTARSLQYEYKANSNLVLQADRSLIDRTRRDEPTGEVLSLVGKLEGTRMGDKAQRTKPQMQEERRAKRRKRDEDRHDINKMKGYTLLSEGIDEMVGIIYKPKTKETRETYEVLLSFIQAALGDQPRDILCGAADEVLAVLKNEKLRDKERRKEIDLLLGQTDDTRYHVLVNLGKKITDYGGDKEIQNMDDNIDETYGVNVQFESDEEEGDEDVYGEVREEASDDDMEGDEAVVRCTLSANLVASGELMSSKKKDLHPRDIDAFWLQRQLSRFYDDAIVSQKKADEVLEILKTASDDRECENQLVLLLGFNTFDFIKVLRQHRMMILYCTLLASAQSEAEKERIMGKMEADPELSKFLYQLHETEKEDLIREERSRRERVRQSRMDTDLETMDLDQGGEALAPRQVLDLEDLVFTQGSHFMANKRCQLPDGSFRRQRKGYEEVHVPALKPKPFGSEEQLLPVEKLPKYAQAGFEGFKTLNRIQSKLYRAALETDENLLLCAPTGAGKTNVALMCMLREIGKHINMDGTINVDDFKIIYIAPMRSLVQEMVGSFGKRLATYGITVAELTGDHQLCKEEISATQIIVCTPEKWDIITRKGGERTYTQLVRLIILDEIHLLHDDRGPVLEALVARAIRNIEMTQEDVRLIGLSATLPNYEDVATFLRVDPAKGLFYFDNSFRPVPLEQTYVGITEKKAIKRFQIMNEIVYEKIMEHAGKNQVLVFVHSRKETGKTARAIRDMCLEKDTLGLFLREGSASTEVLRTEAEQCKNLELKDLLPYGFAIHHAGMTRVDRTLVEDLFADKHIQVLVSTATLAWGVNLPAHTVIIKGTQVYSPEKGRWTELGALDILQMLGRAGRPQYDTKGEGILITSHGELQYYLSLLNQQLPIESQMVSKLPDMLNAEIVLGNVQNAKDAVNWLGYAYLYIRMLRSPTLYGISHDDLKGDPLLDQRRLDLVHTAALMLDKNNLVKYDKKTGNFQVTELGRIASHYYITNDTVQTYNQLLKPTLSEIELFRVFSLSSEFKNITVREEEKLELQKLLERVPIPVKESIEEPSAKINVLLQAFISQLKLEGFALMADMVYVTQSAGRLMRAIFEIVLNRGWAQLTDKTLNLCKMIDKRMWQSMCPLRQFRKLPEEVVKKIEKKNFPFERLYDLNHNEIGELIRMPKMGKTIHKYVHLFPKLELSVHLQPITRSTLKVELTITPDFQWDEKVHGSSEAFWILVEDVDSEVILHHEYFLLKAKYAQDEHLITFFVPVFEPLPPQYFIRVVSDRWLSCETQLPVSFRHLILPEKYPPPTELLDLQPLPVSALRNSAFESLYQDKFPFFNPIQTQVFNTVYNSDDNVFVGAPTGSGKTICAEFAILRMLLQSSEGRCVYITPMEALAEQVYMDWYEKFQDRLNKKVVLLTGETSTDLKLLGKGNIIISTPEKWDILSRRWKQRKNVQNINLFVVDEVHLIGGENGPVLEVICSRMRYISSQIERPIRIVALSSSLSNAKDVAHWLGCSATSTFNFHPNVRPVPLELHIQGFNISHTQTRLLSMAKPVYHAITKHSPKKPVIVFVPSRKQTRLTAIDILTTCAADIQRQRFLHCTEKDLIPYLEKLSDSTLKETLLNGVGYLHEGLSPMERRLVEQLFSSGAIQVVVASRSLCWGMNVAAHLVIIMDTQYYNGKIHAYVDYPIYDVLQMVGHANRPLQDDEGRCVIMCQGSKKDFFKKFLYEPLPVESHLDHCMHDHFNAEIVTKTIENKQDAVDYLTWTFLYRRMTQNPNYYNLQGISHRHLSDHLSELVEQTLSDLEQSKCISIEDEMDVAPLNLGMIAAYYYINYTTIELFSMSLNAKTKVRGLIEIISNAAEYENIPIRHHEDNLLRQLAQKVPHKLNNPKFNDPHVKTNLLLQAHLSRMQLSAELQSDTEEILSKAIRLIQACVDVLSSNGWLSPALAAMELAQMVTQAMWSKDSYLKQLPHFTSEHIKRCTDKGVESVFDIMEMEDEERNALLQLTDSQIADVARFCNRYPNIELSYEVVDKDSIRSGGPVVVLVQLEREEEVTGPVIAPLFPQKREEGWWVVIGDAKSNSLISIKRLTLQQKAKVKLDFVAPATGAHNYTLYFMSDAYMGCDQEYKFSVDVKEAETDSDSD
In the case of K357E;R359E, the “effect of a mutation on the interaction” value is given as “with no effect”.

The next test covers variants of B1. The conditions noted are these: with u520_human SNRNP200, O75643. The source holds these as a separate data set.
Regarding K357E;R359E, the “effect of a mutation on the interaction” value is reported as “decreasing interaction strength”. Consider K358A;R360A, for which the “effect of a mutation on the interaction” value is recorded as “decreasing interaction strength”.

A further test covers variants of B1. The conditions noted are these: with u520_human SNRNP200, O75643. This is another data set of the same source.
Turning to W150A, the “effect of a mutation on the interaction” value is listed as “with no effect”.

The variants in another test derive from B1. The note with it: with ppih_human PPIH.
Regarding W150A, the “effect of a mutation on the interaction” value is given as “with no effect”.

Another test covers variants of B1. The note with it: with sf3b2_human SF3B2, Q13435.
Sequence of sf3b2_human SF3B2, Q13435 (Q13435 whole entry): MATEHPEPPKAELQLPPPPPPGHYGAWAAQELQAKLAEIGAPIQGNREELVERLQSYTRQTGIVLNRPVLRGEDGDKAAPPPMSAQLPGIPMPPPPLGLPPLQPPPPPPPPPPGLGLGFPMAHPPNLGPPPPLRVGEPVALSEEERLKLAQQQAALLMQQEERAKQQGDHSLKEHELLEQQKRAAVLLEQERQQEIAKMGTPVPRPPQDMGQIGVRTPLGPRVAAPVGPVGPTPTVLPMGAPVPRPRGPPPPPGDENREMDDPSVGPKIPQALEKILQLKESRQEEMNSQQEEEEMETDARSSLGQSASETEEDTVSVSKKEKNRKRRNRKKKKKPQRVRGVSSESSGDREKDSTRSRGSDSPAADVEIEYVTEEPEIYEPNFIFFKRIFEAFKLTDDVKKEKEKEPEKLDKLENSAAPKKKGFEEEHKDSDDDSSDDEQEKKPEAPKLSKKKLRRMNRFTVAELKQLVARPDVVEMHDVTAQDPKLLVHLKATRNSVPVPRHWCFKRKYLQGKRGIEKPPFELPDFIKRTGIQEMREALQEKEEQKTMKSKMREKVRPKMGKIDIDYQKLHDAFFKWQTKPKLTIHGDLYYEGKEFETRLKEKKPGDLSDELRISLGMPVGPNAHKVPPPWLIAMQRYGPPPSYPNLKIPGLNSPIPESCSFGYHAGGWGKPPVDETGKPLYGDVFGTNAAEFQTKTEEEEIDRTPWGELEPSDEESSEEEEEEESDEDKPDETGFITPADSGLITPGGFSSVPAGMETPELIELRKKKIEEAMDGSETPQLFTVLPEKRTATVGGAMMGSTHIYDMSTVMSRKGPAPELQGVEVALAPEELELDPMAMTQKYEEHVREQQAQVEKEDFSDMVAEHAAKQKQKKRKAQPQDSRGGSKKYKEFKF
For the variant W150A, the “effect of a mutation on the interaction” value is listed as “with no effect”.

Variants of B1 are the subject of a further test. The conditions noted are these: with zc21a_human ZC2HC1A.
Consider W150A, for which the “effect of a mutation on the interaction” value is recorded as “with no effect”.

In another test the parent is B2. The note with it: with snw1_human SNW1, Q13573.
Take W150A: the “effect of a mutation on the interaction” value is on record as “with no effect”.

Variants of B3 are the subject of the next test. The note with it: with fa50b_human FAM50B.
For W150A, the “effect of a mutation on the interaction” value was “with no effect”.

A further test covers variants of B4. The note with it: with wdr83_human WDR83, Q9BRX9.
In the case of W150A, the “effect of a mutation on the interaction” value is given as “with no effect”.
